Experiment [1] concerns the target T1, recombinant human CD4 (catalogue number: 514-CD/CF, manufactured by R&D Systems) (human, UniProt P01730 26-390).
T1 construct: Bought protein (R&D Systems); also called recombinant CD4
Description: SPR, Biacore T100; antibody captured on anti-human IgG chip, recombinant human CD4 flowed; 1:1 binding model; kd beyond the maker's measurable limit. The procedure:
(§1) In order to kinetically analyze the binding activity of anti-CD4 chimeric antibodies KM4045 to KM4049, 6G5-1 and 6G5-P to recombinant human CD4, the binding activity was measured by surface plasmon resonance method (SPR). All of the following manipulations were carried out using a Biacore T100 (manufactured by GE Healthcare Bio-Sciences). The anti-human IgG antibody was immobilized on a CM5 sensor chip (manufactured by GE Healthcare Bio-Sciences) by an amine coupling method using a Human Antibody Capture Kit (manufactured by GE Healthcare Bio-Sciences) in accordance with the protocols attached thereto. An assay sample (anti-CD4 chimeric antibodies KM4045 to KM4049) was added to be captured on the anti-human IgG antibody-immobilized chip to give 100 RU (resonance unit). Thereafter, the recombinant human CD4 (manufactured by R&D) diluted from 2500 ng/mL in five steps was allowed to run at a flow rate of 30 μL/min onto the chip, and the sensorgram corresponding to each concentration was obtained. The analysis was carried out in the 1:1 binding model using an analysis software attached to the apparatus, Biacore T100 Evaluation software (manufactured by Biacore), thereby calculating an association rate constant ka and a dissociation rate constant kd of respective antibodies for human CD4. […]
In general terms: In SPR one partner is held on a chip, and binding of the other changes the refractive index at the surface.

For experiment [2], the target named is T1, recombinant human CD4 (catalogue …). Description: SPR, Biacore T100; antibody captured on anti-human IgG chip, recombinant human CD4 flowed; 1:1 binding model; value beyond the maker's measurable limit (1 × 10^-5). As for the experimental part: as §1
Experiment [3] shares this target. Description: SPR, Biacore T100; antibody captured on anti-human IgG chip, recombinant human CD4 flowed; 1:1 binding model. As for the experimental part: (§2) In order to kinetically analyze the binding activity of anti-CD4 chimeric antibodies KM4045 to KM4049, 6G5-1 and 6G5-P to recombinant human CD4, the binding activity was measured by surface plasmon resonance method (SPR). All of the following manipulations were carried out using a Biacore T100 (manufactured by GE Healthcare Bio-Sciences). The anti-human IgG antibody was immobilized on a CM5 sensor chip (manufactured by GE Healthcare Bio-Sciences) by an amine coupling method using a Human Antibody Capture Kit (manufactured by GE Healthcare Bio-Sciences) in accordance with the protocols attached thereto. An assay sample (anti-CD4 chimeric antibodies KM4045 to KM4049) was added to be captured on the anti-human IgG antibody-immobilized chip to give 100 RU (resonance unit). Thereafter, the recombinant human CD4 (manufactured by R&D) diluted from 2500 ng/mL in five steps was allowed to run at a flow rate of 30 μL/min onto the chip, and the sensorgram corresponding to each concentration was obtained. The analysis was carried out in the 1:1 binding model using an analysis software attached to the apparatus, Biacore T100 Evaluation software (manufactured by Biacore), thereby calculating an association rate constant ka and a dissociation rate constant kd of respective antibodies for human CD4.
The measurement of a binding activity was carried out according to the method described in Example 7(2). The association rate constant ka, the dissociation rate constant kd and the dissociation constant KD (kd/ka) of respective antibodies thus obtained are shown in Table 6.

Experiment [4] shares this target. The experiment is described as above. The procedure: as §2
As a result, an association rate constant ka, a dissociation rate constant kd, and a dissociation constant KD (kd/ka) of individual antibodies thus obtained are given in Table 5.
The source holds these as a separate data set.

Experiment [5] shares this target. Description: SPR, Biacore T100; summary sentence to Table 6.
For experiment [6] the target is unchanged. Description: Biacore T100.

Where two headings read alike, the source gives them in different places. Where only a bound is given, the exact number is not on record here.

B1: anti-CD4 chimeric antibody KM4045 (antibody, V domains shown)
VH: EVQLVESGGGLVQPGRSMKLSCAASGFTFSNYGMAWVRQAPTKGLEWVATISYDGSITYYRDSVKGRFTISRDHAKSTLYLQMNSLRSEDTATYYCTREEQYSSWYFDFWGPGIMVTVSS
VL: DIVLTQSPALAVSLGQRATISCRASQSVSISSHDLMQWYQQKPGQQPKLLIYDAFNLASGIPVRFSGSGSGTDFTLTIDPVQADDIATYYCQQSKDDPYTFGAGTKLELK
notes: Variable regions of rat KM4065 joined to a '113F type' heavy chain constant region and a human kappa constant region; In the 113F type, part of the human IgG1 Fc is substituted with human IgG3 Fc (US2007/0148165); Expressed in FUT8 knockout CHO cells (0% fucose)
Broadly, the Kd is a measure of binding affinity in units of concentration. As usually defined, the koff is a measure of how fast the partners let go of each other. A word on the kon: it is the second-order rate constant of association. Consider B1, for which the Kd was at most 0.0824 pM in experiment [1] and below 0.0184 nM in experiment [3]. In addition, the koff in experiment [2] and in experiment [3] was below 1e-05 s⁻¹ each time. The kon was determined as 541000 M⁻¹ s⁻¹ in experiment [3] and 360000 M⁻¹ s⁻¹ in experiment [4].

B2: anti-CD4 humanized antibody HV4LV6 (antibody, V domains shown)
VH: EVQLVESGGGLVQPGRSMRLSCAASGFTFSNYGMAWVRQAPGKGLEWVATISYDGSITYYRDSVKGRFTISRDNSKNTLYLQMNSLRAEDTATYYCTREEQYSSWYFDFWGQGILVTVSS
VL: DIQLTQSPSSLSVSLGDRATITCRASQSVSISSHDLMQWYQQKPGKQPKLLIYDAFNLASGIPSRFSGSGSGTDFTLTISSVQPEDFATYYCQQSKDDPYTFGQGTKLEIK
notes: Expressed from the humanized antibody expression vector pKANTEX93
Turning to B2, in experiment [5], the Kd was at most 0.1 nM. In addition, in experiment [3], the Kd is below 0.0248 nM, the koff was below 1e-05 s⁻¹ and the kon is 403000 M⁻¹ s⁻¹. Moreover, the “binding activity relative to the anti-CD4 chimeric antibody KM4045” value in experiment [6] is 0.5 fold of KM4045.

B3: anti-CD4 humanized antibody HV2LV0 (antibody, V domains shown)
VH: EVQLVESGGGLVQPGRSLRLSCAASGFTFSNYGMAWVRQAPGKGLEWVATISYDGSITYYRDSVKGRFTISRDNSKNTLYLQMNSLRAEDTAVYYCTREEQYSSWYFDFWGQGILVTVSS
VL: DIQLTQSPSSLSASVGDRVTITCRASQSVSISSHDLMQWYQQKPGKAPKLLIYDAFNLASGVPSRFSGSGSGTDFTLTISSLQPEDFATYYCQQSKDDPYTFGQGTKLEIK
notes: Expressed from the humanized antibody expression vector pKANTEX93; also called KM8045; humanized antibody KM8045
In the case of B3, in experiment [5], the dissociation constant Kd is at most 0.1 nM. Moreover, in experiment [3], the Kd was below 0.00877 nM, the koff was below 1e-05 s⁻¹ and the kon amounted to 1.14e+06 M⁻¹ s⁻¹. Besides, the “binding activity relative to the anti-CD4 chimeric antibody KM4045” value in experiment [6] is 0.5 fold of KM4045.

B4: anti-CD4 humanized antibody HV4LV0 (antibody, V domains shown)
VH: EVQLVESGGGLVQPGRSMRLSCAASGFTFSNYGMAWVRQAPGKGLEWVATISYDGSITYYRDSVKGRFTISRDNSKNTLYLQMNSLRAEDTATYYCTREEQYSSWYFDFWGQGILVTVSS
VL: DIQLTQSPSSLSASVGDRVTITCRASQSVSISSHDLMQWYQQKPGKAPKLLIYDAFNLASGVPSRFSGSGSGTDFTLTISSLQPEDFATYYCQQSKDDPYTFGQGTKLEIK
notes: as for B2
As for B4, the Kd in experiment [5] is at most 0.1 nM. Further, in experiment [3], the Kd is below 0.0126 nM, the koff is below 1e-05 s⁻¹ and the kon is 791000 M⁻¹ s⁻¹. Further, the “binding activity relative to the anti-CD4 chimeric antibody KM4045” value in experiment [6] is 0.5 fold of KM4045.

(Values after patent publication US20100310573A1 (Kyowa Kirin, published 2010).)
